Laboratory results: PMC8319299 (2020)
Where no end group is shown, it is not given here. [ ]: non-standard residue; d: D form. Lys(Me3) = C[N+](C)(C)CCCC[C@H](N)C(=O)O

Molecular target: EED (amino acids 40-441) (human, UniProt O75530-1 40-441)
Test: FP

Sequence of EED (amino acids 40-441) (O75530 40-441): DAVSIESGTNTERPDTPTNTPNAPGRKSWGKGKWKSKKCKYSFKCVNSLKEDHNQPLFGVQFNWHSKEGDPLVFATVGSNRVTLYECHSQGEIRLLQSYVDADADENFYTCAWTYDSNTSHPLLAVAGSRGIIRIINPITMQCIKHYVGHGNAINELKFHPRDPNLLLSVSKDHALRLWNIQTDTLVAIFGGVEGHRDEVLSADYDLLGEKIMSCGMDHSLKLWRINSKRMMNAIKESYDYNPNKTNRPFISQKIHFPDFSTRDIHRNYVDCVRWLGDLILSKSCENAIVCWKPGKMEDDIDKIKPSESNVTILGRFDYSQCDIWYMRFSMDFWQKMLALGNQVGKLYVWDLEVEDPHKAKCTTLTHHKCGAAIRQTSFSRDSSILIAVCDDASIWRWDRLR

B1: PALI1-K1241me3 peptide with the F1242A mutation (peptide)
chain: LK[Lys(Me3)]APG
- Kd: 223 µM
